The values below come from patent US20160361280A1.

Experiment [1] deals with hCD1d/β-2-microglobulin refolded with ThrCer 2 (human) (UniProt P15813). As to the kind of experiment: SPR (BIAcore); calculated from experimental koff and Kd.
Experiment [2] concerns the target hCD1d/β-2-microglobulin refolded with ThrCer carbamate 11 (human) (UniProt P15813). Described as above.
The target of experiment [3] is hCD1d/β-2-microglobulin refolded with ThrCer thioamide 9 (human) (UniProt P15813). The experiment is described as above.
Experiment [4] has as its target hCD1d/β-2-microglobulin refolded with α-GalCer 1 (human) (UniProt P15813). The description is as above.
Experiment [5] concerns the target hCD1d/β-2-microglobulin refolded with α-GalCer carbamate 8 (human) (UniProt P15813). The experiment is described as above.
Experiment [6] deals with hCD1d/β-2-microglobulin refolded with α-GalCer thioamide 6 (human) (UniProt P15813). Described as above.
The target in experiment [7] is hCD1d/β-2-microglobulin refolded with ThrCer 2 (human) (UniProt P15813). As to the kind of experiment: SPR (BIAcore), kinetics; TCR injected over immobilised biotinylated hCD1d-lipid.
The target in experiment [8] is hCD1d/β-2-microglobulin refolded with ThrCer carbamate 11 (human) (UniProt P15813). The experiment is described as above.
In experiment [9] the target is hCD1d/β-2-microglobulin refolded with ThrCer thioamide 9 (human) (UniProt P15813). The experiment is described as above.
The target of experiment [10] is hCD1d/β-2-microglobulin refolded with α-GalCer 1 (human) (UniProt P15813). The experiment is described as above.
Experiment [11] deals with hCD1d/β-2-microglobulin refolded with α-GalCer carbamate 8 (human) (UniProt P15813). Described as above.
Experiment [12] addresses hCD1d/β-2-microglobulin refolded with α-GalCer thioamide 6 (human) (UniProt P15813). The description is as above.
Experiment [13] has as its target hCD1d/β-2-microglobulin refolded with ThrCer 2 (human) (UniProt P15813). As to the kind of experiment: SPR (BIAcore), equilibrium binding; TCR injected over immobilised biotinylated hCD1d-lipid.
In experiment [14] the target is hCD1d/β-2-microglobulin refolded with ThrCer carbamate 11 (human) (UniProt P15813). The description is as above.
Experiment [15] has as its target hCD1d/β-2-microglobulin refolded with ThrCer thioamide 9 (human) (UniProt P15813). Described as above.
In experiment [16] the target is hCD1d/β-2-microglobulin refolded with α-GalCer 1 (human) (UniProt P15813). The experiment is described as above.
Experiment [17] concerns the target hCD1d/β-2-microglobulin refolded with α-GalCer carbamate 8 (human) (UniProt P15813). The description is as above.
In experiment [18] the target is hCD1d/β-2-microglobulin refolded with α-GalCer thioamide 6 (human) (UniProt P15813). Described as above.

Consider “soluble human iNKT cell T cell receptor (Vα24/Vβ11 heterodimer) (TCR)”, for which the kon in experiment [1] was 258000 M⁻¹ s⁻¹; in [2], 259000 M⁻¹ s⁻¹; in experiment [3], 520000 M⁻¹ s⁻¹; in experiment [4] it was 258000 M⁻¹ s⁻¹; in [5], 534000 M⁻¹ s⁻¹; in [6], 128000 M⁻¹ s⁻¹. For the same substance, the koff in [7] stood at 1.18 s⁻¹; in experiment [8] it was 1.19 s⁻¹; in experiment [9], 1.88 s⁻¹; in experiment [10], 0.565 s⁻¹; in experiment [11], 0.919 s⁻¹; in experiment [12] it was 0.537 s⁻¹. Further, the Kd in [13] came to 4.57 µM; in [14], 4.6 µM; in experiment [15], 36.1 µM; in experiment [16] it was 2.19 µM; in experiment [17], 1.72 µM; in experiment [18], 4.2 µM.
